Assay results taken from article PMC3894786 (Cell, 2012).

Legend:
Assay in all cases: LUMIER with BACON
LCK = LCK (human, UniProt P06239 1-509)
CDK6 = CDK6 (human, UniProt Q00534 1-326)
STK38 = STK38 (human, UniProt Q15208 1-465)
FGFR3 = FGFR3 (human, UniProt P22607 23-806)
FGFR3, sequence (P22607 23-806): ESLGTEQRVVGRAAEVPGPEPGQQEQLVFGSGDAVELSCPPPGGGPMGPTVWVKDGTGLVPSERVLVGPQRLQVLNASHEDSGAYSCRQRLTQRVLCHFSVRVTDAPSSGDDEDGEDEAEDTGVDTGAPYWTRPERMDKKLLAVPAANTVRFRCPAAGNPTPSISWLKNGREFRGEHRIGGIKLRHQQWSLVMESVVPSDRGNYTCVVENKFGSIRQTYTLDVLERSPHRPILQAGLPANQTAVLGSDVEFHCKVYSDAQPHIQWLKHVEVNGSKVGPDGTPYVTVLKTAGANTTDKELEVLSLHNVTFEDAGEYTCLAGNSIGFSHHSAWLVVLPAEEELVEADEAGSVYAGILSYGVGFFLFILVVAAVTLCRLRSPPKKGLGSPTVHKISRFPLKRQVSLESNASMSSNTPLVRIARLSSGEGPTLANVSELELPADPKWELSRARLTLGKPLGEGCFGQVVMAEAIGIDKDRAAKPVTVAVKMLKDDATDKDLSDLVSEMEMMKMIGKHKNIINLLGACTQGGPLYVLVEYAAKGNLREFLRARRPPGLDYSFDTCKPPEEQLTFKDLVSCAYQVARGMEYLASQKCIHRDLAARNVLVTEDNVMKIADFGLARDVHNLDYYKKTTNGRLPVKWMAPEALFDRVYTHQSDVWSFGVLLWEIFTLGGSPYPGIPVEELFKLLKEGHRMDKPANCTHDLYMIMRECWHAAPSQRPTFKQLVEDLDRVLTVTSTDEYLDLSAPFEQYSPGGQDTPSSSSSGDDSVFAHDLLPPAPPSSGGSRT

CDK6, sequence (Q00534 whole entry): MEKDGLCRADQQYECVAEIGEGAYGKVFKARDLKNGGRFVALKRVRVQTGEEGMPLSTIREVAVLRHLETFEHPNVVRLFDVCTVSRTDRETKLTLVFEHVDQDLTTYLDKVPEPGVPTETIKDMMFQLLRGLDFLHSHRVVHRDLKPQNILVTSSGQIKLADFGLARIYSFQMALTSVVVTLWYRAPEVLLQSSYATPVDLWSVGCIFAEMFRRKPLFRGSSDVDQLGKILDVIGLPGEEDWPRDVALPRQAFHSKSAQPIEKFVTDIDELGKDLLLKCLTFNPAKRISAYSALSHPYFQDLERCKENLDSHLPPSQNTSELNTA
STK38, sequence (Q15208 whole entry): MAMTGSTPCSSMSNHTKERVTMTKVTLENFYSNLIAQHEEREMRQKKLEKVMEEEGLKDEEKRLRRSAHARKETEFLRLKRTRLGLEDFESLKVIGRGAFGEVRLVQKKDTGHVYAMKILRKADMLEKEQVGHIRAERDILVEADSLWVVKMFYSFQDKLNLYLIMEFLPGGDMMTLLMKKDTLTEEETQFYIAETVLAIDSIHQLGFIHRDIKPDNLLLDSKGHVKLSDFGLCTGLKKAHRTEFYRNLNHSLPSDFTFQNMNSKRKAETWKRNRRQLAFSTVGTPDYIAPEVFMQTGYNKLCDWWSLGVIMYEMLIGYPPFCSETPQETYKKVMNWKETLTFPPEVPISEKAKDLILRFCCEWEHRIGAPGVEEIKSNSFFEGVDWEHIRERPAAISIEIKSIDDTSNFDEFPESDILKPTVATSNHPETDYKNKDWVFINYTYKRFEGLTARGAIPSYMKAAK
LCK, sequence (P06239 whole entry): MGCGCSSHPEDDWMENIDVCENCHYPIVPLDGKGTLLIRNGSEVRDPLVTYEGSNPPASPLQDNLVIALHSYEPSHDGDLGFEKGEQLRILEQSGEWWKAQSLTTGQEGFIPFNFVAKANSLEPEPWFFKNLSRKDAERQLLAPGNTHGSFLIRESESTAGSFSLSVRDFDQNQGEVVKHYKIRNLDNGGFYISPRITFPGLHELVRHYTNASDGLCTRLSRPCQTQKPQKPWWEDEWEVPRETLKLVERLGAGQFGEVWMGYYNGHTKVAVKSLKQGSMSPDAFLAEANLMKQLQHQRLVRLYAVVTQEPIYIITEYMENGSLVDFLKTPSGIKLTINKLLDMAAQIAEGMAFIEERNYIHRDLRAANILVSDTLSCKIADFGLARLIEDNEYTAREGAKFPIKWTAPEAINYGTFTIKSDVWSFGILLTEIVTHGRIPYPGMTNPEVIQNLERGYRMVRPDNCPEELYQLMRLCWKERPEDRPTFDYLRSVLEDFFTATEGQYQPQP

B1: Renilla luciferase-tagged HSP90β (natural protein)
chain: not shown
half-life of dissociation after 500 nM ganetespib (LCK): ~3 min
half-life of dissociation after 500 nM ganetespib (CDK6): ~3 min
half-life of dissociation after 500 nM ganetespib (STK38): ~3 min
half-life of dissociation after 500 nM ganetespib (FGFR3): 29 min
